Source: US20060153838A1

Legend:
[1] = molecular target: soluble human FcγRIII (biotinylated) (human) (UniProt P08637); assay: ELISA: IgG captured on PSA-coated plate, biotinylated soluble FcγR, NeutrAvidin-AP, A560 background-subtracted and normalized
[2] = molecular target: soluble human FcγRIIb (biotinylated) (human) (UniProt P31994); assay: as above
[3] = molecular target: soluble human FcγRIIa (biotinylated) (human) (UniProt P12318); assay: as above
[4] = molecular target: soluble human FcγRIII (biotinylated) (human) (UniProt P08637); assay: ELISA screen in a manner similar to the anti-PSA library, anti-TNFα parent IgG, biotinylated soluble FcγR, normalized signal
[5] = molecular target: soluble human FcγRIIb (biotinylated) (human) (UniProt P31994); assay: as above

Sequence of UniProt P31994 (P31994 43-217): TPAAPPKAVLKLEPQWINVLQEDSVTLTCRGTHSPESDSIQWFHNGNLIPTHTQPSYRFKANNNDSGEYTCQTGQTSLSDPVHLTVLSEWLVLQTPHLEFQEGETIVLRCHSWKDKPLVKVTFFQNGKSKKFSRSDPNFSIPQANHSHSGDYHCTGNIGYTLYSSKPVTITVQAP
Sequence of UniProt P08637 (P08637 17-208): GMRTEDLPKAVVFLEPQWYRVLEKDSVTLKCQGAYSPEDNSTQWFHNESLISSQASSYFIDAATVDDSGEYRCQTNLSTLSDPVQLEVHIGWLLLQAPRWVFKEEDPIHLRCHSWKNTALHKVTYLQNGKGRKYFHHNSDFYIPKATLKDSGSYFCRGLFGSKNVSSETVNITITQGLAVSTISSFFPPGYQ
Sequence of UniProt P12318 (P12318 34-217): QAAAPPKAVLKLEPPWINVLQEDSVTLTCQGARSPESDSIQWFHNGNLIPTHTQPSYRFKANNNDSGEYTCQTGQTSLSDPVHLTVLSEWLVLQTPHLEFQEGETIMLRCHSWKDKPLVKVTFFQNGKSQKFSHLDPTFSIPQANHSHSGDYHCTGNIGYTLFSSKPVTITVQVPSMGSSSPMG

Substance | relative FcγRIII (relative to parental antibody = 1.0) [1] | relative FcγRIIb (relative to parental antibody = 1.0) [2] | relative FcγRIIa (relative to parental antibody = 1.0) [3] | relative FcγRIII (relative to parental antibody = 1.0) [4] | relative FcγRIIb (relative to parental antibody = 1.0) [5]
anti-PSA IgG Fc variant E294N (antibody) | 1.14 | 0.672 |  |  | 
anti-PSA IgG Fc variant Q295K (antibody) | 1.47 | 0.892 |  |  | 
anti-PSA IgG Fc variant Q295L (antibody) | 1.06 | 1.34 | 1.44 |  | 
anti-PSA IgG Fc variant S298D (antibody) | 2.31 | 0.188 |  |  | 
anti-PSA IgG Fc variant S298N (antibody) | 1.42 | 0.363 |  |  | 
anti-PSA IgG Fc variant S298V (antibody) | 2.8 | 0.592 |  |  | 
anti-PSA IgG Fc variant Y300I (antibody) | 1.38 | 1.26 |  |  | 
anti-PSA IgG Fc variant Y300L (antibody) | 1.81 | 1.36 |  |  | 
anti-TNFα IgG Fc variant D280H (antibody) |  |  |  | 1.24 | 0.92
anti-TNFα IgG Fc variant D280Q (antibody) |  |  |  | 1.19 | 0.87
anti-TNFα IgG Fc variant D280Y (antibody) |  |  |  | 1.23 | 2.14
anti-TNFα IgG Fc variant K290G (antibody) |  |  |  | 1.64 | 1.46
anti-TNFα IgG Fc variant K290S (antibody) |  |  |  | 1.23 | 1.4
